Changes are numbered by the printed parent chain.
T1: PAN (Methanocaldococcus jannaschii, UniProt Q58576)
T1 construct: recombinant from pRSETA, homohexamer
T1 sequence (Q58576 1-430): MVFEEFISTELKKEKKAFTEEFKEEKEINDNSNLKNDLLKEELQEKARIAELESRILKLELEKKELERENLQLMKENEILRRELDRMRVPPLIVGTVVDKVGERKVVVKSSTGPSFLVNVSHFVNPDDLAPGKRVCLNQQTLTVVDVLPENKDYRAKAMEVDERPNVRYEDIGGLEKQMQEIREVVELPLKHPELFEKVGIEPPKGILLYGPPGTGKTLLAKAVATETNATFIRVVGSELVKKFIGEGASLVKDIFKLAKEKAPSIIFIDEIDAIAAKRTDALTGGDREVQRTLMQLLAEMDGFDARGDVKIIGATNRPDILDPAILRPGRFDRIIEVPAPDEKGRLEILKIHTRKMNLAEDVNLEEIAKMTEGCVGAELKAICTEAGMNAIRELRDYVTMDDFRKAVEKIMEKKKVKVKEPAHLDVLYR

B1: PAN wild type (enzyme)
chain: T1 sequence (Q58576 1-430)
B2: PAN-R328/331A (enzyme, UniProt Q58576 1-430, looked up)
chain: T1 sequence (Q58576 1-430) with R328A, R331A
notes: PAN, archaeal proteasomal ATPase; Vector pRSETA; also called double mutant; double-arginine mutant; source: expression vector in pRSETA made by site-directed mutagenesis
B3: PAN-R331A (enzyme, UniProt Q58576 1-430, looked up)
chain: T1 sequence (Q58576 1-430) with R331A
notes: PAN, archaeal proteasomal ATPase; Vector pRSETA; source: expression vector in pRSETA made by site-directed mutagenesis
B4: PAN-R328A (enzyme, UniProt Q58576 1-430, looked up)
chain: T1 sequence (Q58576 1-430) with R328A
notes: as for B3

How the values were obtained:
PAN = target: T1, PAN; assay: NADH-coupled ATPase assay, Hill equation; assay type: biochemical; details: 50 mM Tris-HCl pH 7.5, 5 mM MgCl2; 100 nM PAN
Source text: NADH-coupled ATPase assay, Hill equation on PAN | Vmax, KM and Hill coefficient (h) values were obtained by nonlinear regression analysis

archaeal 20S proteasome = archaeal 20S proteasome (UniProt P25156)
[1] = target: the molecule itself; assay: native gel or EMSA; native gel of the PAN mutants; conditions not given

archaeal 20S proteasome, sequence (P25156 whole entry, chain 1 of 2): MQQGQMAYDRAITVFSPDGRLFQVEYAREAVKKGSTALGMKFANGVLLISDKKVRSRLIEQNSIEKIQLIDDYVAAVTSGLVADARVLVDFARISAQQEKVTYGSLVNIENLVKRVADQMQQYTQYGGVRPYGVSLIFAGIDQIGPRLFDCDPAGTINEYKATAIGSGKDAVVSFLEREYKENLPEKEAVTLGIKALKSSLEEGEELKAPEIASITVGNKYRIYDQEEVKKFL
archaeal 20S proteasome, sequence (chain, as listed by the source, chain 2 of 2): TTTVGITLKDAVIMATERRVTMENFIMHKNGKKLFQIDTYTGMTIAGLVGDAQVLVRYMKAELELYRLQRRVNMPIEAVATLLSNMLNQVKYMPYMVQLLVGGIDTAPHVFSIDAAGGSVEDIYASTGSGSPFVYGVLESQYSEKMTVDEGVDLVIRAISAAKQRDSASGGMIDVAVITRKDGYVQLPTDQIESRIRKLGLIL

| Molecule | stoichiometry N [1] | also measured |
| --- | --- | --- |
| Nc1ncnc2c1ncn2[C@@H]1O[C@H](COP(=O)(O)OP(=O)(O)OP(=O)(O)O)[C@@H](O)[C@H]1O [ATP] |  | Km (PAN): 261 ± 8 µM |
| B1 |  | LFP peptide hydrolysis by the 20S (20 nM) with PAN (80 nM) and 10 μM ATPγS (gate opening) (archaeal 20S proteasome): 9 fold |
| B2 | 6 |  |
| B3 | 6 |  |
| B4 | 6 |  |
